From patent US20230257470A1 (published 2023)

T1: human FcγRIIa type H (human, UniProt P12318 36-217)
T1 construct: also called FcyRIIaH; FcγRIIa(H)
T1 sequence: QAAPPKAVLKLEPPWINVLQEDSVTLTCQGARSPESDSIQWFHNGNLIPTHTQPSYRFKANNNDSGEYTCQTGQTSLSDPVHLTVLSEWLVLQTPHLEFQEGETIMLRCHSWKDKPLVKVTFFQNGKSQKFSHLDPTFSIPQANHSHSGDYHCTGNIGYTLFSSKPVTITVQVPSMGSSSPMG

T2: human FcγRIIb (human, UniProt P31994 43-217, limits assumed)
T2 construct: also called FcyRIfb; FcγIIB
T2 sequence: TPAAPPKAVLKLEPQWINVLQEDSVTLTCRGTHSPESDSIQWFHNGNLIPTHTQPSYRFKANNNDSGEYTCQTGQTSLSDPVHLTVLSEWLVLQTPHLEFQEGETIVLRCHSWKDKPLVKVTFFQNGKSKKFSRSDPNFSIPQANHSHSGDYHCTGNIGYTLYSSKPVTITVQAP


What was measured:
Assay in all cases: SPR (Biacore), FcγR over captured antibody; binding amount relative to IL6R-BF648/IL6R-L x100
human FcγRIa = biological target: T3, human FcγRIa (human, UniProt P12314 16-292, limits assumed)
T3 construct: also called FcyRIa; CD64
T3 sequence (P12314 16-292 limits assumed): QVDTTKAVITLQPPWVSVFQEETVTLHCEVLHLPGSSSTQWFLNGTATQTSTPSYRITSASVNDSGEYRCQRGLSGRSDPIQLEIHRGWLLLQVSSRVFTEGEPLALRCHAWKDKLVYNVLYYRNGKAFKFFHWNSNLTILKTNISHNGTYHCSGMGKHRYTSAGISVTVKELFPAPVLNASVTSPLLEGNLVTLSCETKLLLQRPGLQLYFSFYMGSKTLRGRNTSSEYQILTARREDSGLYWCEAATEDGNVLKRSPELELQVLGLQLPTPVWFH

human FcγRIIa type H = biological target: T1, human FcγRIIa type H
human FcγRIIIa type V = biological target: T4, human FcγRIIIa type V (human, UniProt P08637 17-208, limits assumed)
T4 construct: also called FcyRIIIa; FcγRIIIaV
T4 sequence (P08637 other isoform, or with tags, fused parts or gaps limits assumed): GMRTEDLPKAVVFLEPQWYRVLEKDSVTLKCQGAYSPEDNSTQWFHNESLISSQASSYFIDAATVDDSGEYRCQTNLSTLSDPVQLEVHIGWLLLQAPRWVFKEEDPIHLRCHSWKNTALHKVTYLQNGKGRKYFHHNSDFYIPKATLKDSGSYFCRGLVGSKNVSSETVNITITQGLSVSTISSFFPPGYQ

human FcγRIIb = biological target: T2, human FcγRIIb

relative binding (human FcγRIa) | relative binding (human FcγRIIa type H) | relative binding (human FcγRIIIa type V) | relative binding (human FcγRIIb) | Binder
100 % of IL6R-BF648/IL6R-L | 100 % of IL6R-BF648/IL6R-L | 100 % of IL6R-BF648/IL6R-L | 100 % of IL6R-BF648/IL6R-L | IL6R-BF648/IL6R-L (antibody, human IgG1, name in EU numbering, Alterations are those introduced into IL6R-B3) heavy: not shown light: DIQMTQSPSSLSASVGDRVTITCRASQDISSYLNWYQQKPGKAPKLLIYYTSRLHSGVPSRFSGSGSGTDFTFTISSLQPEDIATYYCQQGNTLPYTFGQGTKVEIK
73 % of IL6R-BF648/IL6R-L | 83 % of IL6R-BF648/IL6R-L | 94 % of IL6R-BF648/IL6R-L | 104 % of IL6R-BF648/IL6R-L | IL6R-2B169/IL6R-L (antibody, human IgG1, name in EU numbering) heavy: QVQLQESGPGLVKPSETLSLTCAVSGHSISHDHAWSWVRQPPGEGLEWIGFISYSGITNYNPSLQGRVTISRDNSKNTLYLQMNSLRAEDTAVYYCARSLARTTAMDYWGEGTLVTVSSASTKGPSVFPLAPSSKSTSGGTAALGCLVKDYFPEPVTVSWNSGALTSGVHTFPAVLQSSGLYSLSSVVTVPSSSLGTQTYICNVNHKPSNTKVDKKVEPKSCDKTHTCPPCPAPELLGGDSVFLFPPKPKDTLMISRTPEVTCVVVDVSHEDPEVKFNWYVDGVEVHNAKTKPREEQYNSTYRVVSVLTVLHQDWLNGKEYKCKISNKALPAPIEKTISKAKGQPREPQVYTLPPSRDELTKNQVSLTCLVKGFYPSDIAVEWESNGQPENNYKTTPPVLDSDGSFFLYSKLTVDKSRWQQGNVFSCSVMHEALHNHYTQESLSLSP light: DIQMTQSPSSLSASVGDRVTITCRASQDISSYLNWYQQKPGKAPKLLIYYTSRLHSGVPSRFSGSGSGTDFTFTISSLQPEDIATYYCQQGNTLPYTFGQGTKVEIK
104 % of IL6R-BF648/IL6R-L | 66 % of IL6R-BF648/IL6R-L | 86 % of IL6R-BF648/IL6R-L | 106 % of IL6R-BF648/IL6R-L | IL6R-BP102/IL6R-L (antibody, human IgG1, name in EU numbering) heavy: QVQLQESGPGLVKPSETLSLTCAVSGHSISHDHAWSWVRQPPGEGLEWIGFISYSGITNYNPSLQGRVTISRDNSKNTLYLQMNSLRAEDTAVYYCARSLARTTAMDYWGEGTLVTVSSASTKGPSVFPLAPSSKSTSGGTAALGCLVKDYFPEPVTVSWNSGALTSGVHTFPAVLQSSGLYSLSSVVTVPSSSLGTQTYICNVNHKPSNTKVDKKVEPKSCDKTHTCPPCPAPELLGGDSVFLFPPKPKDTLMISRTPEVTCVVVDVQHEDPEVKFNWYVDGVEVHNAKTKPREEQYNSTYRVVSVLTVLHQDWLNGKEYKCKVSNKALPAPIEKTISKAKGQPREPQVYTLPPSRDELTKNQVSLTCLVKGFYPSDIAVEWESNGQPENNYKTTPPVLDSDGSFFLYSKLTVDKSRWQQGNVFSCSVMHEALHNHYTQESLSLSP light: DIQMTQSPSSLSASVGDRVTITCRASQDISSYLNWYQQKPGKAPKLLIYYTSRLHSGVPSRFSGSGSGTDFTFTISSLQPEDIATYYCQQGNTLPYTFGQGTKVEIK
116 % of IL6R-BF648/IL6R-L | 115 % of IL6R-BF648/IL6R-L | 122 % of IL6R-BF648/IL6R-L | 113 % of IL6R-BF648/IL6R-L | IL6R-2B171/IL6R-L (antibody, human IgG1, name in EU numbering) heavy: QVQLQESGPGLVKPSETLSLTCAVSGHSISHDHAWSWVRQPPGEGLEWIGFISYSGITNYNPSLQGRVTISRDNSKNTLYLQMNSLRAEDTAVYYCARSLARTTAMDYWGEGTLVTVSSASTKGPSVFPLAPSSKSTSGGTAALGCLVKDYFPEPVTVSWNSGALTSGVHTFPAVLQSSGLYSLSSVVTVPSSSLGTQTYICNVNHKPSNTKVDKKVEPKSCDKTHTCPPCPAPELLGGDSVFLFPPKPKDTLMISRTPEVTCVVVDVSHEDPEVKFNWYVDGVEVHNAKTKPREEQYNSTYRVVSVLTVLHQDWLNGKEYKCKLSNKALPAPIEKTISKAKGQPREPQVYTLPPSRDELTKNQVSLTCLVKGFYPSDIAVEWESNGQPENNYKTTPPVLDSDGSFFLYSKLTVDKSRWQQGNVFSCSVMHEALHNHYTQESLSLSP light: DIQMTQSPSSLSASVGDRVTITCRASQDISSYLNWYQQKPGKAPKLLIYYTSRLHSGVPSRFSGSGSGTDFTFTISSLQPEDIATYYCQQGNTLPYTFGQGTKVEIK
140 % of IL6R-BF648/IL6R-L | 179 % of IL6R-BF648/IL6R-L | 144 % of IL6R-BF648/IL6R-L | 132 % of IL6R-BF648/IL6R-L | IL6R-2B172/IL6R-L (antibody, human IgG1, name in EU numbering) heavy: QVQLQESGPGLVKPSETLSLTCAVSGHSISHDHAWSWVRQPPGEGLEWIGFISYSGITNYNPSLQGRVTISRDNSKNTLYLQMNSLRAEDTAVYYCARSLARTTAMDYWGEGTLVTVSSASTKGPSVFPLAPSSKSTSGGTAALGCLVKDYFPEPVTVSWNSGALTSGVHTFPAVLQSSGLYSLSSVVTVPSSSLGTQTYICNVNHKPSNTKVDKKVEPKSCDKTHTCPPCPAPELLGGDSVFLFPPKPKDTLMISRTPEVTCVVVDVSHEDPEVKFNWYVDGVEVHNAKTKPREEQYNSTYRVVSVLTVLHQDWLNGKEYKCKMSNKALPAPIEKTISKAKGQPREPQVYTLPPSRDELTKNQVSLTCLVKGFYPSDIAVEWESNGQPENNYKTTPPVLDSDGSFFLYSKLTVDKSRWQQGNVFSCSVMHEALHNHYTQESLSLSP light: DIQMTQSPSSLSASVGDRVTITCRASQDISSYLNWYQQKPGKAPKLLIYYTSRLHSGVPSRFSGSGSGTDFTFTISSLQPEDIATYYCQQGNTLPYTFGQGTKVEIK
118 % of IL6R-BF648/IL6R-L | 147 % of IL6R-BF648/IL6R-L | 147 % of IL6R-BF648/IL6R-L | 116 % of IL6R-BF648/IL6R-L | IL6R-2B002/IL6R-L (antibody, human IgG1, name in EU numbering) heavy: QVQLQESGPGLVKPSETLSLTCAVSGHSISHDHAWSWVRQPPGEGLEWIGFISYSGITNYNPSLQGRVTISRDNSKNTLYLQMNSLRAEDTAVYYCARSLARTTAMDYWGEGTLVTVSSASTKGPSVFPLAPSSKSTSGGTAALGCLVKDYFPEPVTVSWNSGALTSGVHTFPAVLQSSGLYSLSSVVTVPSSSLGTQTYICNVNHKPSNTKVDKKVEPKSCDKTHTCPPCPAPDLLGGDSVFLFPPKPKDTLMISRTPEVTCVVVDVSHEDPEVKFNWYVDGVEVHNAKTKPREEQYNSTYRVVSVLTVLHQDWLNGKEYKCKVSNKALPAPIEKTISKAKGQPREPQVYTLPPSRDELTKNQVSLTCLVKGFYPSDIAVEWESNGQPENNYKTTPPVLDSDGSFFLYSKLTVDKSRWQQGNVFSCSVMHEALHNHYTQESLSLSP light: DIQMTQSPSSLSASVGDRVTITCRASQDISSYLNWYQQKPGKAPKLLIYYTSRLHSGVPSRFSGSGSGTDFTFTISSLQPEDIATYYCQQGNTLPYTFGQGTKVEIK
 | 127 % of IL6R-BF648/IL6R-L | 127 % of IL6R-BF648/IL6R-L | 101 % of IL6R-BF648/IL6R-L | IL6R-BP110/IL6R-L (antibody, human IgG1, name in EU numbering) heavy: QVQLQESGPGLVKPSETLSLTCAVSGHSISHDHAWSWVRQPPGEGLEWIGFISYSGITNYNPSLQGRVTISRDNSKNTLYLQMNSLRAEDTAVYYCARSLARTTAMDYWGEGTLVTVSSASTKGPSVFPLAPSSKSTSGGTAALGCLVKDYFPEPVTVSWNSGALTSGVHTFPAVLQSSGLYSLSSVVTVPSSSLGTQTYICNVNHKPSNTKVDKKVEPKSCDKTHTCPPCPAPELLGGDSVFLFPPKPKDTLMISRTPEVTCVVVDVSNEDPEVKFNWYVDGVEVHNAKTKPREEQYNSTYRVVSVLTVLHQDWLNGKEYKCKVSNKALPAPIEKTISKAKGQPREPQVYTLPPSRDELTKNQVSLTCLVKGFYPSDIAVEWESNGQPENNYKTTPPVLDSDGSFFLYSKLTVDKSRWQQGNVFSCSVMHEALHNHYTQESLSLSP light: DIQMTQSPSSLSASVGDRVTITCRASQDISSYLNWYQQKPGKAPKLLIYYTSRLHSGVPSRFSGSGSGTDFTFTISSLQPEDIATYYCQQGNTLPYTFGQGTKVEIK
56 % of IL6R-BF648/IL6R-L | 69 % of IL6R-BF648/IL6R-L | 77 % of IL6R-BF648/IL6R-L | 107 % of IL6R-BF648/IL6R-L | IL6R-BP103/IL6R-L (antibody, human IgG1, name in EU numbering) heavy: QVQLQESGPGLVKPSETLSLTCAVSGHSISHDHAWSWVRQPPGEGLEWIGFISYSGITNYNPSLQGRVTISRDNSKNTLYLQMNSLRAEDTAVYYCARSLARTTAMDYWGEGTLVTVSSASTKGPSVFPLAPSSKSTSGGTAALGCLVKDYFPEPVTVSWNSGALTSGVHTFPAVLQSSGLYSLSSVVTVPSSSLGTQTYICNVNHKPSNTKVDKKVEPKSCDKTHTCPPCPAPELLGGDSVFLFPPKPKDTLMISRTPEVTCVVVDVVHEDPEVKFNWYVDGVEVHNAKTKPREEQYNSTYRVVSVLTVLHQDWLNGKEYKCKVSNKALPAPIEKTISKAKGQPREPQVYTLPPSRDELTKNQVSLTCLVKGFYPSDIAVEWESNGQPENNYKTTPPVLDSDGSFFLYSKLTVDKSRWQQGNVFSCSVMHEALHNHYTQESLSLSP light: DIQMTQSPSSLSASVGDRVTITCRASQDISSYLNWYQQKPGKAPKLLIYYTSRLHSGVPSRFSGSGSGTDFTFTISSLQPEDIATYYCQQGNTLPYTFGQGTKVEIK
121 % of IL6R-BF648/IL6R-L | 128 % of IL6R-BF648/IL6R-L | 138 % of IL6R-BF648/IL6R-L | 110 % of IL6R-BF648/IL6R-L | IL6R-BP100/IL6R-L (antibody, human IgG1, name in EU numbering) heavy: QVQLQESGPGLVKPSETLSLTCAVSGHSISHDHAWSWVRQPPGEGLEWIGFISYSGITNYNPSLQGRVTISRDNSKNTLYLQMNSLRAEDTAVYYCARSLARTTAMDYWGEGTLVTVSSASTKGPSVFPLAPSSKSTSGGTAALGCLVKDYFPEPVTVSWNSGALTSGVHTFPAVLQSSGLYSLSSVVTVPSSSLGTQTYICNVNHKPSNTKVDKKVEPKSCDKTHTCPPCPAPELLGGDSVFLFPPKPKDTLMISRTPEVTCVVVDVAHEDPEVKFNWYVDGVEVHNAKTKPREEQYNSTYRVVSVLTVLHQDWLNGKEYKCKVSNKALPAPIEKTISKAKGQPREPQVYTLPPSRDELTKNQVSLTCLVKGFYPSDIAVEWESNGQPENNYKTTPPVLDSDGSFFLYSKLTVDKSRWQQGNVFSCSVMHEALHNHYTQESLSLSP light: DIQMTQSPSSLSASVGDRVTITCRASQDISSYLNWYQQKPGKAPKLLIYYTSRLHSGVPSRFSGSGSGTDFTFTISSLQPEDIATYYCQQGNTLPYTFGQGTKVEIK
145 % of IL6R-BF648/IL6R-L | 1600 % of IL6R-BF648/IL6R-L | 3260 % of IL6R-BF648/IL6R-L | 58 % of IL6R-BF648/IL6R-L | IL6R-B3/IL6R-L (antibody, human IgG1, IL6R-G1d with K439E (EU numbering)) heavy: not shown light: DIQMTQSPSSLSASVGDRVTITCRASQDISSYLNWYQQKPGKAPKLLIYYTSRLHSGVPSRFSGSGSGTDFTFTISSLQPEDIATYYCQQGNTLPYTFGQGTKVEIK
